Results taken from PMC314469, “Protein Interaction Networks by Proteome Peptide Scanning” (PLoS Biology, 2004).

What was measured:
[1] = target: endophilin SH3 (SH3G2_HUMAN), Q99962; assay: SPOT array
[2] = target: T1, amphyphisin SH3 (AMPH_HUMAN), P49418; assay: SPOT array
T1 chain: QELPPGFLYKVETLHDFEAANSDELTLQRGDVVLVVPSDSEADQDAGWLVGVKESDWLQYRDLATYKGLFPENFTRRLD

Binder: LSQDLIRPIRKTGT [Q9HBF6 199-212]
- normalised SPOT signal, Boehringer light units (BLU); mean over the file's lines of this peptide [1]: 276
- normalised SPOT signal, Boehringer light units (BLU); mean over the file's lines of this peptide [2]: 1840

Binder: APANLERPVRYIRK [Q9NYB9 126-139]
- normalised SPOT signal, Boehringer light units (BLU); mean over the file's lines of this peptide [1]: 180
- normalised SPOT signal, Boehringer light units (BLU); mean over the file's lines of this peptide [2]: 3060

Binder: LAYFPPRPPLPPSV [Q96SL1 246-260]
- normalised SPOT signal, Boehringer light units (BLU); mean over the file's lines of this peptide [1]: 2170
- normalised SPOT signal, Boehringer light units (BLU); mean over the file's lines of this peptide [2]: 48.7

Binder: LATQPKRPMSIPII [P16144 1316-1329]
- normalised SPOT signal, Boehringer light units (BLU); mean over the file's lines of this peptide [1]: 660
- normalised SPOT signal, Boehringer light units (BLU); mean over the file's lines of this peptide [2]: 23.2

Binder: LANELRRPPLSYHN [P07996 308-321]
- normalised SPOT signal, Boehringer light units (BLU); mean over the file's lines of this peptide [1]: 173
- normalised SPOT signal, Boehringer light units (BLU); mean over the file's lines of this peptide [2]: 34.3

Binder: LSYSLYRPRKYLYV [Q9Y6D4 264-277]
- normalised SPOT signal, Boehringer light units (BLU); mean over the file's lines of this peptide [1]: 288
- normalised SPOT signal, Boehringer light units (BLU); mean over the file's lines of this peptide [2]: 137

Binder: AAPLLRRPHGGAGP [O75086 179-192]
- normalised SPOT signal, Boehringer light units (BLU); mean over the file's lines of this peptide [1]: 102
- normalised SPOT signal, Boehringer light units (BLU); mean over the file's lines of this peptide [2]: 25.6

Binder: LAITLRRPGSELEA [Q96KY5 32-45]
- normalised SPOT signal, Boehringer light units (BLU); mean over the file's lines of this peptide [1]: 27.9
- normalised SPOT signal, Boehringer light units (BLU); mean over the file's lines of this peptide [2]: 16

Binder: LDGALMRPGRLDRH [Q9UQ90 461-474]
- normalised SPOT signal, Boehringer light units (BLU); mean over the file's lines of this peptide [1]: 1590
- normalised SPOT signal, Boehringer light units (BLU); mean over the file's lines of this peptide [2]: 1540

Binder: LAQPLRRPSSVGEL [O43379 748-761]
- normalised SPOT signal, Boehringer light units (BLU); mean over the file's lines of this peptide [1]: 45.3
- normalised SPOT signal, Boehringer light units (BLU); mean over the file's lines of this peptide [2]: 37.1

Binder: LASRPTRPPEPRHI [O94836 267-281]
- normalised SPOT signal, Boehringer light units (BLU); mean over the file's lines of this peptide [1]: 22900
- normalised SPOT signal, Boehringer light units (BLU); mean over the file's lines of this peptide [2]: 1090

Binder: LAHILRRPIIVYGV [Q9UGI0 529-542]
- normalised SPOT signal, Boehringer light units (BLU); mean over the file's lines of this peptide [1]: 629
- normalised SPOT signal, Boehringer light units (BLU); mean over the file's lines of this peptide [2]: 45.6

Binder: LAHVLRRPIVVVAD [Q9NQ53 317-330]
- normalised SPOT signal, Boehringer light units (BLU); mean over the file's lines of this peptide [1]: 37.7
- normalised SPOT signal, Boehringer light units (BLU); mean over the file's lines of this peptide [2]: 37.4

Binder: LSHPLARPRRDAEP [P27539 244-257]
- normalised SPOT signal, Boehringer light units (BLU); mean over the file's lines of this peptide [1]: 405
- normalised SPOT signal, Boehringer light units (BLU); mean over the file's lines of this peptide [2]: 984

Binder: LAELPQKPPPGDLP [Q9ULH1 746-760]
- normalised SPOT signal, Boehringer light units (BLU); mean over the file's lines of this peptide [1]: 37.5
- normalised SPOT signal, Boehringer light units (BLU); mean over the file's lines of this peptide [2]: 62.4

Binder: LDASPRRPPGPTTS [Q01970 912-926]
- normalised SPOT signal, Boehringer light units (BLU); mean over the file's lines of this peptide [1]: 1090
- normalised SPOT signal, Boehringer light units (BLU); mean over the file's lines of this peptide [2]: 210

Binder: LASTPKRPSTSQTV [P12270 638-651]
- normalised SPOT signal, Boehringer light units (BLU); mean over the file's lines of this peptide [1]: 78
- normalised SPOT signal, Boehringer light units (BLU); mean over the file's lines of this peptide [2]: 32

Binder: APELLKRPKEYTVR [O14897 560-573]
- normalised SPOT signal, Boehringer light units (BLU); mean over the file's lines of this peptide [1]: 29.7
- normalised SPOT signal, Boehringer light units (BLU); mean over the file's lines of this peptide [2]: 28

Binder: LAEGINRPRKGHDA [O95985 371-384]
- normalised SPOT signal, Boehringer light units (BLU); mean over the file's lines of this peptide [1]: 198
- normalised SPOT signal, Boehringer light units (BLU); mean over the file's lines of this peptide [2]: 99.3

Binder: APEALPRPRREGEL [Q9HA29 107-120]
- normalised SPOT signal, Boehringer light units (BLU); mean over the file's lines of this peptide [1]: 318
- normalised SPOT signal, Boehringer light units (BLU); mean over the file's lines of this peptide [2]: 708

Binder: LARIPNKPPPEYPG [Q15678 740-754]
- normalised SPOT signal, Boehringer light units (BLU); mean over the file's lines of this peptide [1]: 20.4
- normalised SPOT signal, Boehringer light units (BLU); mean over the file's lines of this peptide [2]: 30.4

Binder: LALFLKRPKRSLFF [P41440 199-212]
- normalised SPOT signal, Boehringer light units (BLU); mean over the file's lines of this peptide [1]: 838
- normalised SPOT signal, Boehringer light units (BLU); mean over the file's lines of this peptide [2]: 2280

Binder: LDPALIRPGRIDRK [Q03527 337-350]
- normalised SPOT signal, Boehringer light units (BLU); mean over the file's lines of this peptide [1]: 75.3
- normalised SPOT signal, Boehringer light units (BLU); mean over the file's lines of this peptide [2]: 4590

Binder: LDPALLRPGRFDKL [Q13608 854-867]
- normalised SPOT signal, Boehringer light units (BLU); mean over the file's lines of this peptide [1]: 0
- normalised SPOT signal, Boehringer light units (BLU); mean over the file's lines of this peptide [2]: 944

Binder: LAELPGRPPIFWPG [Q9C056 106-120]
- normalised SPOT signal, Boehringer light units (BLU); mean over the file's lines of this peptide [1]: 98
- normalised SPOT signal, Boehringer light units (BLU); mean over the file's lines of this peptide [2]: 53.5

Binder: LDMALRRPPRLRLS [Q8WWL8 44-57]
- normalised SPOT signal, Boehringer light units (BLU); mean over the file's lines of this peptide [1]: 1210
- normalised SPOT signal, Boehringer light units (BLU); mean over the file's lines of this peptide [2]: 4180

Binder: LSGLIKRPGDLPEV [Q9UFP1 189-202]
- normalised SPOT signal, Boehringer light units (BLU); mean over the file's lines of this peptide [1]: 49.5
- normalised SPOT signal, Boehringer light units (BLU); mean over the file's lines of this peptide [2]: 21.9

Binder: LDNALIRPGRFDMQ [Q9Y2Q2 234-247]
- normalised SPOT signal, Boehringer light units (BLU); mean over the file's lines of this peptide [1]: 80.5
- normalised SPOT signal, Boehringer light units (BLU); mean over the file's lines of this peptide [2]: 240

Binder: LAEELIRPERNTLV [Q14566 49-62]
- normalised SPOT signal, Boehringer light units (BLU); mean over the file's lines of this peptide [1]: -0
- normalised SPOT signal, Boehringer light units (BLU); mean over the file's lines of this peptide [2]: 19.4

Binder: LSNILRRPIIVISD [P21580 199-212]
- normalised SPOT signal, Boehringer light units (BLU); mean over the file's lines of this peptide [1]: 84.4
- normalised SPOT signal, Boehringer light units (BLU); mean over the file's lines of this peptide [2]: 26

Binder: LSKTLRRPRSLLET [Q9C000 828-841]
- normalised SPOT signal, Boehringer light units (BLU); mean over the file's lines of this peptide [1]: 51.9
- normalised SPOT signal, Boehringer light units (BLU); mean over the file's lines of this peptide [2]: 32.3
